Reference: PMC5091643, “Dimer/monomer status and in vivo function of salt‐bridge mutants of the plant UV‐B photoreceptor UVR8” (The Plant Journal, 2016)
Residue numbers refer to the chain shown, from its start. Names may count otherwise.

Tests used:
[1] = target: T1, UV … LOCUS8 (UVR8), purified wild-type (Arabidopsis thaliana), Q9FN03; test: SEC; purified proteins not exposed to UV-B; Superdex 200 HR10/30, 50 mM Tris pH 7.5, 150 mM NaCl, 1 mM β-ME, 0.02% sodium azide, 4°C; dimer to monomers; conditions: remark: other sources report otherwise
T1 chain: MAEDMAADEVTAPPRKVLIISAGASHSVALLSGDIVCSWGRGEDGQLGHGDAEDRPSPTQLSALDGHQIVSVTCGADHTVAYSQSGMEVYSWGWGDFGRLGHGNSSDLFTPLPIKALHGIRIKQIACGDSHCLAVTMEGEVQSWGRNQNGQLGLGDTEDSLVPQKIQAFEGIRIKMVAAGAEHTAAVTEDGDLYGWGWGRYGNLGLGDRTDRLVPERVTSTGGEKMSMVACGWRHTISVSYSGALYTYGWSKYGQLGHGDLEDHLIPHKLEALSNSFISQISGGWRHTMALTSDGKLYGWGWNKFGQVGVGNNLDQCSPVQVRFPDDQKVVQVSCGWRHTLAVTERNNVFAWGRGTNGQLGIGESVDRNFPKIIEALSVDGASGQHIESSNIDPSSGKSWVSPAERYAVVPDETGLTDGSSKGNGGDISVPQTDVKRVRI

[2] = target: T2, GFP-UVR8 (wild type) in transgenic Arabidopsis uvr8-1 (Arabidopsis thaliana), Q9FN03; test: cross-linking; DSP (4 mM, 30 min on ice) added to PBS extracts of transgenic uvr8-1 plants not exposed to UV-B; 10% SDS-PAGE without β-ME, blot with anti-UVR8; conditions: remark: other sources report otherwise
T2 chain: T1 chain

[3] = target: T2, GFP-UVR8 (wild type) in transgenic …; test: SDS-PAGE with non-boiled samples; whole cell extracts of transgenic uvr8-1 plants not exposed to UV-B; SDS-loading buffer, not boiled, 7.5% gel, blot with anti-UVR8; conditions: remark: other sources report otherwise
[4] = target: T3, GFP-UVR8 (wild type) transiently expressed in Nicotiana benthamiana (Arabidopsis thaliana), Q9FN03; test: SEC; GFP fusions transiently expressed in N. benthamiana, not exposed to UV-B, immunoprecipitated with anti-GFP microbeads; eluates on Superdex 200, fractions blotted with anti-GFP; conditions: remark: other sources report otherwise
T3 chain: T1 chain

[5] = target: the molecule itself; test: cross-linking; DSP (4 mM, 30 min on ice) added to PBS extracts of transgenic uvr8-1 plants not exposed to UV-B; 10% SDS-PAGE without β-ME, blot with anti-UVR8
[6] = target: the molecule itself; test: SEC; purified proteins not exposed to UV-B; Superdex 200 HR10/30, 50 mM Tris pH 7.5, 150 mM NaCl, 1 mM β-ME, 0.02% sodium azide, 4°C; dimer to monomers

B1: UV … LOCUS8 (UVR8), purified wild-type, Q9FN03 1-440 (natural protein)
chain: T1 chain
- stoichiometry N [1]: 2

B2: GFP-UVR8 (wild type) in transgenic Arabidopsis uvr8-1, Q9FN03 1-440 (natural protein)
chain: T1 chain
- stoichiometry N [2]: 2
- stoichiometry N [3]: 2

B3: GFP-UVR8 (wild type) transiently expressed in Nicotiana benthamiana, Q9FN03 1-440 (natural protein)
chain: T1 chain
- stoichiometry N [4]: 2

B4: GFP-UVR8^R146A in transgenic Arabidopsis uvr8-1 (natural protein, Arabidopsis thaliana, UniProt Q9FN03 1-440, looked up)
chain: T1 chain with R146A
notes: UV … LOCUS8 (UVR8), Arabidopsis thaliana; Sub-cloned into pEZR(K)L-C downstream of eGFP; also called line 9; source: transgenic Arabidopsis uvr8-1 plants (CaMV 35S promoter), in whole cell extract; not shown: eGFP, N-terminal, kept
- stoichiometry N [5]: 2

B5: GFP-UVR8^R286K in transgenic Arabidopsis uvr8-1 (natural protein, Arabidopsis thaliana, UniProt Q9FN03 1-440, looked up)
chain: T1 chain with R286K
notes: UV … LOCUS8 (UVR8), Arabidopsis thaliana; Sub-cloned into pEZR(K)L-C downstream of eGFP; also called line 2-3; source: transgenic Arabidopsis uvr8-1 plants (CaMV 35S promoter), in whole cell extract; not shown: eGFP, N-terminal, kept
- stoichiometry N [5]: 2

B6: UVR8^R286K, purified (natural protein, Arabidopsis thaliana, UniProt Q9FN03 1-440, looked up)
chain: T1 chain with R286K
notes: UV … LOCUS8 (UVR8), Arabidopsis thaliana; source: E. coli, purified as described previously (Christie et al., 2012)
- stoichiometry N [6]: 2

B7: UVR8^R146A, purified (natural protein, Arabidopsis thaliana, UniProt Q9FN03 1-440, looked up)
chain: T1 chain with R146A
notes: as for B6
- stoichiometry N [6]: 2
